Here are results for 15 sequences from the DeepSol protein solubility set.

The data set can be described thus: soluble on expression in E. coli; label from the status in PepcDB or PDB records.
Take “MNNQKQQKPTLSGQRFKTRKRDEKERFDPTQFQDCIIQGLTETGTDLEAVAKFLDASGAKLDYRRYAETLFDILVAGGMLAPGGTLADDMMRTDVCVFAAQEDLETMQAFAQVFNKLIRRYKYLEKGFEDEVKKLLLFLKGFSESERNKLAMLTGVLLANGTLNASILNSLYNENLVKEGVSAAFAVKLFKSWINEKDINAVAASLRKVSMDNRLMELFPANKQSVEHFTKYFTEAGLKELSEYVRNQQTIGARKELQKELQEQMSRGDPFKDIILYVKEEMKKNNIHFMKAFQKIVVLFYKAEVLSEEPILKWYKDAHVAKGKSVFLEQMKKFVEWLKNAEEESESEAEEGD”: the “soluble on expression in E. coli” value is “not soluble”. With “MSDYLSVSTLTKYLKLKFDKDPYLERVYLTGQVSNFRRRPNHQYFSLKDDKSVIQATMWSGHFKKLGFELEEGMKVNVVGRVQLYEPSGSYSIIVEKAEPDGIGALAIQFEQLKKKLSQAGYFDDRHKQLIPQFVRKIGVVTSPSGAVIRDIITTVSRRFPGVEILLFPTKVQGEGAAQEIAQTIALANEKKDLDLLIVGRGGGSIEDLWAFNEECVVEAIFESRLPVISSVGHETDTTLADFVADRRAATPTAAAELATPVTKIDILSWITERENRMYQSSLRLIRTKEERLQKSKQSVIFRQPERLYDGFLQKLDNLNQQLTYSMRDKLQTVRQKQGLLHQKLQGIDLKQRIHIYQERVVQSRRLLSSTMTSQYDSKLARFEKAQDALISLDSSRIVARGYAIIEKNHTLVSTTNGINEGDHLQVKMQDGLLEVEVKDVRQENI” the entry was “not soluble”; with “MLLVSTGAAGAEVIYVEPGASIQAAVNNSTTGDFIIVKAGEYEENIVVNVSGVTVSSEPEKSGSVFIRAGDRNSSVFQVKADNVTISGFNITGSGEFFSTHEASSPRDSFPKDPDGQGVSDIPELRKTYSLGSGEVFISRSTEFDCPQAGICLDQVENCTIERNHIFENQYGVYLQGSMNNTLSNNTFFRNGILIDEGCSRNTAENNSIEEGNLIIGAHCWDNIISRNRLSNGGGIGIACCGGGNLVSNNEIINCSTGVDMYDTQARTVLCGNLITDCDYGIYLILVYDSRVYNNTISNSSRGIFLRENSQNNELSGNIINSSNESGIYLLDHCADNRIFNNYFNNTVNVKAENSKGNSWNITKAPGINIAEGPYLGGNFWADLNGTGYSQIAEDSDSDGICDLPYNVNGCDYDYLPLARLPFSPSLSGGNLKLLEHHHHHH”, “not soluble”; with “MATGNRNPENFTSLSPIVKAPITDTLSVPLSQQGRICGFFESQFYRCMEAYGAKMGRKYCDLEHRDFQECVTGDKQKKRADAIREQRCKLFLDGKIAKPYVDNHPEPGQFKTDHFQWNRIN”, “not soluble”. In the case of “MTTSCLQEKIDKLQNTVHALLHKSNYMAGVYVDDLARLNNEIHEQINDLYPCHGKTAEQEAALCLSLLMGYSVSMYANSEDEAKKKTVLRRSQMILKNQLPSPLKIQLHTIYDKLLS” it was “not soluble”. With “SNAMKEKVVIITGGSSGMGKGMATRFAKEGARVVITGRTKEKLEEAKLEIEQFPGQILTVQMDVRNTDDIQKMIEQIDEKFGRIDILINNAAGNFICPAEDLSVNGWNSVINIVLNGTFYCSQAIGKYWIEKGIKGNIINMVATYAWDAGPGVIHSAAAKAGVLAMTKTLAVEWGRKYGIRVNAIAPGPIERTGGADKLWISEEMAKRTIQSVPLGRLGTPEEIAGLAYYLCSDEAAYINGTCMTMDGGQHLHQYPF” the entry was “soluble”.

“MSLSMKKERGVVYTPLKISNYIIDSTISEEDIIKNPFLKIVDPACGCGNIIIPCFIYLRNIYIKNLDKINNINKLELREENINYHIIKNNLFGYDVDLNAIKVLTIDLFCESKCFSSNFLCKDFLLDEIGIKYDIFLSNPPYVGLKSINKEYSAILKTMYPSYKDKADISYCFFEKSILCLKIDGKLGFITSRYFLESQSGEELRRILVEKCSLYKIVDFYGIRPFKKAGIDTVMIFLERGIGDRKSIEIIKPKIMKNNRKDEFYYSLFNGTNEGIDKFYINIKALDSKRWILRKDEEIDIINKIEKNSEGHHHHHH”: the “soluble on expression in E. coli” value is “not soluble”. With “MNACVSVVCYKSKTLSNGENPLMLQVSKGGKRKYQSLGISINPKYWDFTRNKPKPNCPNKEYIQKIILDKQRELQQRMLELNSEQKEYTTTTLLNNENTKFELKTVSMFYKELIEQYTREDKCGNRLIYKGSFNSLKVFTNGKLDIPFNEIDIAWLNKYEKWLRSKGNRETTISLLFRTLRSAYNKAIKAKCARKSDYPFDDYKINKFDTTTQKRAIAKTDVLKFTTEVQPIGKQQYMELSKDIFVFSYLCGGINFTDIANLTNENIQNGRLHYIRQKTKKPIKIGIPQEAMQIIEKYSKESKG” the entry was “not soluble”; with “MSLTISDVPTQTLPAEGEIGLIDVGSLQLESGAVIDDVCIAVQRWGKLSPARDNVVVVLHALTGDSHITGPAGPGHPTPGWWDGVAGPGAPIDTTRWCAVATNVLGGCRGSTGPSSLARDGKPWGSRFPLISIRDQVQADVAALAALGITEVAAVVGGSMGGARALEWVVGYPDRVRAGLLLAVGARATADQIGTQTTQIAAIKADPDWQSGDYHETGRAPDAGLRLARRFAHLTYRGEIELDTRFANHNQGNEDPTAGGRYAVQSYLEHQGDKLLSRFDAGSYVILTEALNSHDVGRGRGGVSAALRACPVPVVVGGITSDRLYPLRLQQELADLLPGCAGLRVVESVYGHDGFLVETEAVGELIRQTLGLADREGACREGHHHHHH”, “not soluble”; with “MAIDSKPHDDLQLFKTNLHPCGYWPDRWASDLVMDPNDPRLGAIYPQTLAWGFRRSGNLLYRPHCEHCNACVPVRVNVNAFVPNRSQRRCLARNATLVTRIVPAERNAEQLSLYRRYLHQRHPDGGMDGHGAIEFDQFLIGPWGYGRFMEIREPATNGTPGQLLAVAVTDLTHQALSAVYTFYEPNAAARGLGTLAILHQIHWAQREQRPYLYLGYWIKDHFKMDYKRRFQKLEIYDGYRWRPFSTTYPTTHTLLEHHHHHH”, “soluble”. With “MAKKGPKRHLKRLAAPVRWELPRKIHKFTVRPLPGAHPMSESLPLLLIVRDILKYADNAREAKKIIKMGKVLVDGRVRKEEKLPVGLMDVVSLPDANENYRVLFDRKGRIKLKPTENPDVKLCKIKNKTVIKGGHIQLNLHDGRNIVIKVSDPTKAEEDVYKTGDTLLISIPEQEIKAHIPFEVGKLAYITGGKHVGDFAKIVEIERRGIYPDIVTLENMDGEKFKTVKDYVFVVGDEEPIIKLLEHHHHHH” the entry was “soluble”; with “MGSDKIHHHHHHMTTFTAKFIDQEWEVPVESGRYHMIVGEFCPYAQRPQIARQLLGLDKHISISFVDDVPSDIGLIFSQPEQVTGAKSLRDIYHLTDPTYQGPYTIPILIDKTDNRIVCKESADLLRLFTTDFSDLHQEDAPVLFSQETASLIDNDIKDINKNFQSLMYKLAFLDKQADYDTYSKEFFTFLDQKEHLLGQRPFLLGDNLSEVDIHFFTPLVRWDIAGRDLLLLNQKALEDYPNIFSWAKTLYNDFNLKTLTNPQSIKNNYYLGKFGRAVRHHTIVPTGPNMAKWEK”, “not soluble”. For “GPGSMRGVYPYLFAEDMRSRGAGEPAKKEVKKNKFVATINWELFTRVERMDVVFSPRPKGVTTGNEGDIADGCETGAPAVWSFVPVGVPHGENYRANAFLVPMHDKSESPRLLLYVSDISELEDRFFTDLARSKVLLGVDPAVPIEVLVLDMLSRRPYVAHLHVEASIAAAKRINAAKTYYVGMSHRINYDEMMQELQQLGLGATMEMGYDGCVVSVGDSGLQHLSGRL”, the “soluble on expression in E. coli” value is on record as “not soluble”. Regarding “MQSIEHFEPQFLSFIQKEMVQDLAHDINHVLRVVSMAKRLCVEEKGKEAVVIPAAYLHDCFSFAKDHSNRSQSSAFAADKALVFLKEIGYPSEYYDEIHHAIVAHSFSAKVETRTLEAKIVQDADRLDALGAIGIARCLQVSTKLNSPLYSIDDPFCYHREPNDKAYTIDHFYAKLLTLANTMKTTSAVAEAEKRTQYMRDYLTQLESELLEHHHHHH”, the “soluble on expression in E. coli” value was “soluble”.

Turning to “MVGVRMTKKVLIVEDNELNMKLFHDLLEAQGYETLQTREGLSALSIARENKPDLILMDIQLPEISGLEVTKWLKEDDDLAHIPVVAVTAFAMKGDEERIREGGCEAYISKPISVVHFLETIKRLLERQPA”, the “soluble on expression in E. coli” value is recorded as “soluble”.
